{"source": "paper PMC5651844", "about": "“YEATS2 links histone acetylation to tumorigenesis of non-small cell lung cancer” (Nature Communications, 2017)", "biological_target": "YEATS domain of human YEATS2 (aa 201-332), tag removed (human) (UniProt Q9ULM3)", "sequence (Q9ULM3 201-332)": "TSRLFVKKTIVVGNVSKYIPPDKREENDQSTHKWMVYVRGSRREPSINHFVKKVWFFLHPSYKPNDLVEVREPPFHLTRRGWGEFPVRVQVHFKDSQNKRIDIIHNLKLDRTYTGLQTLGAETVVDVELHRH", "test": "ITC; YEATS2_(201-332) titrated with histone peptides, 15 C, 20 mM Tris 7.5, 0.5 M sodium citrate, 5% glycerol, 2 mM beta-mercaptoethanol; one set of binding sites model", "data": [{"substance": "histone H3 P30A mutant peptide (peptide; modification not given)", "values": [{"measurement": "fold drop against the wild-type H3K27ac peptide", "value": 2, "unit": "fold"}]}]}
